# Test results published in article PMC9482650, “Quantitative fragmentomics allow affinity mapping of interactomes” (Nature Communications, 2022).
# Key:
# Assay in all cases: holdup assay
# Parameters in all cases: key: below the threshold = too weak to quantify, mostly under pKd 3.1 to 4
# Settings in all cases: plain residues with an end cap or a label only (N-terminal biotin on a linker: ado-ado)
# APBA3_1, O96018 = biological target: T1, APBA3_1, O96018
# T1 sequence (O96018 389-490, limits assumed, looked up): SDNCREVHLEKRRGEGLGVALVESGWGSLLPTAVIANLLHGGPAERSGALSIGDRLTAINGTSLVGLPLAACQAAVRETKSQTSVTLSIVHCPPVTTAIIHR
# CARD11, Q9BXL7 = biological target: T2, CARD11, Q9BXL7
# T2 sequence (Q9BXL7 662-765, limits assumed, looked up): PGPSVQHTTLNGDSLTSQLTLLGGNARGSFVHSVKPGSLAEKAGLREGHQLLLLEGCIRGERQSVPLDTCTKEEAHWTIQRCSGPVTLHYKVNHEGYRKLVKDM
# DFNB31_1, Q9P202 = biological target: T3, DFNB31_1, Q9P202
# T3 sequence (Q9P202 135-233, limits assumed, looked up): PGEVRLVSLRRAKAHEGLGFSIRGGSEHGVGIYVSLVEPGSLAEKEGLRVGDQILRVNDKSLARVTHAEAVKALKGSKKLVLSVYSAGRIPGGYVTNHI
# DLG2_2, Q15700 = biological target: DLG2_2, Q15700
# DLG4_1, P78352 = biological target: DLG4_1, P78352
# FRMPD2_2, Q68DX3 = biological target: FRMPD2_2, Q68DX3
# GRASP, Q7Z6J2 = biological target: GRASP, Q7Z6J2
# GRID2IP_1, A4D2P6 = biological target: GRID2IP_1, A4D2P6
# GRIP1_3, Q9Y3R0 = biological target: T4, GRIP1_3, Q9Y3R0
# T4 sequence (Q9Y3R0 247-346, limits assumed, looked up): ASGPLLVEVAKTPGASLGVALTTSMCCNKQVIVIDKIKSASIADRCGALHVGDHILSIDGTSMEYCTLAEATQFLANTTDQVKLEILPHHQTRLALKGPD
# GRIP2_4, Q9C0E4 = biological target: GRIP2_4, Q9C0E4
# GRIP2_7, Q9C0E4 = biological target: GRIP2_7, Q9C0E4
# HTRA1, Q92743 = biological target: HTRA1, Q92743
# HTRA4, P83105 = biological target: T5, HTRA4, P83105
# T5 sequence (P83105 378-476, limits assumed, looked up): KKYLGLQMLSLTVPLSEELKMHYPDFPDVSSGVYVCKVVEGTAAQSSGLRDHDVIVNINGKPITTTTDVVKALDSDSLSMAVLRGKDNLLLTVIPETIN
# Inadl_2, Q8NI35 = biological target: Inadl_2, Q8NI35
# Inadl_6, Q8NI35 = biological target: Inadl_6, Q8NI35
# LDB3, O75112 = biological target: LDB3, O75112
# LIMK2, P53671 = biological target: LIMK2, P53671
# LIN7C, Q9NUP9 = biological target: T6, LIN7C, Q9NUP9
# T6 sequence (Q9NUP9 88-185, limits assumed, looked up): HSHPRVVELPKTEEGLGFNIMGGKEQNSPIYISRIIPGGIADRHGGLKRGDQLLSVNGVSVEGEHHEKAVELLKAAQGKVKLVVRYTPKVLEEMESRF
# MAGI2_2, Q86UL8 = biological target: MAGI2_2, Q86UL8
# MAGI2_5, Q86UL8 = biological target: MAGI2_5, Q86UL8
# MAGI3_2, Q5TCQ9 = biological target: MAGI3_2, Q5TCQ9
# NHERF2_2, Q15599 = biological target: NHERF2_2, Q15599
# NHERF3_3, Q5T2W1 = biological target: T7, NHERF3_3, Q5T2W1
# T7 sequence (Q5T2W1 238-333, limits assumed, looked up): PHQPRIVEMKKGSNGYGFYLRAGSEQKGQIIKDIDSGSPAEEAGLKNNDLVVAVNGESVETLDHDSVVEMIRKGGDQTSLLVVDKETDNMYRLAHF
# NHERF4_4, Q86UT5 = biological target: NHERF4_4, Q86UT5
# PARD3_3, Q8TEW0 = biological target: PARD3_3, Q8TEW0
# RAPGEF6, Q8TEU7 = biological target: T8, RAPGEF6, Q8TEU7
# T8 sequence (Q8TEU7 525-625, limits assumed, looked up): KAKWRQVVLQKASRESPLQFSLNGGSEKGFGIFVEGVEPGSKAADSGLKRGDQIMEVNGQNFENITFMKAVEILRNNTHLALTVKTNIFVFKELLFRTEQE
# SHANK1, Q9Y566 = biological target: T9, SHANK1, Q9Y566
# T9 sequence (Q9Y566 658-767, limits assumed, looked up): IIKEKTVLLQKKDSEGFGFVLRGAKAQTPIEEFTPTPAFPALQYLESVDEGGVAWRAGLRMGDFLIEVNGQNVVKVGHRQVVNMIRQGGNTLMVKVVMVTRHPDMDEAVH
# SNX27, Q96L92 = biological target: SNX27, Q96L92
# Chain of Inadl_6, Q8NI35 (Q8NI35 1058-1167): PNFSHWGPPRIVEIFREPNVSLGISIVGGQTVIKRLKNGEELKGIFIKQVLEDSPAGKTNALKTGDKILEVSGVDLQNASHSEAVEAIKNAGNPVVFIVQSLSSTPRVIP
# Chain of GRID2IP_1, A4D2P6 (A4D2P6 1-87): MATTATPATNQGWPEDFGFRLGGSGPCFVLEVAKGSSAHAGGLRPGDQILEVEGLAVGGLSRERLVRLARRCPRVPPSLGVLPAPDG
# Chain of MAGI2_5, Q86UL8 (Q86UL8 915-1017): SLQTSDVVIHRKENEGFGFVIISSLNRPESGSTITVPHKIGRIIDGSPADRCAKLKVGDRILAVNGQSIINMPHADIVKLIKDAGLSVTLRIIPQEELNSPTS
# Chain of MAGI3_2, Q5TCQ9 (Q5TCQ9 398-503): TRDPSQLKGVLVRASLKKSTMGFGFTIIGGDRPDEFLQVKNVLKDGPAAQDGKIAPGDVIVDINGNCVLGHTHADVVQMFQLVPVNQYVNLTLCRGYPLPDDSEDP
# Chain of PARD3_3, Q8TEW0 (Q8TEW0 582-685): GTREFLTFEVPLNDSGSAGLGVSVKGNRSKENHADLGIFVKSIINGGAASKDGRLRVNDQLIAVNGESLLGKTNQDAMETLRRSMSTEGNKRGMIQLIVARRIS
# Chain of GRIP2_7, Q9C0E4 (Q9C0E4 934-1023): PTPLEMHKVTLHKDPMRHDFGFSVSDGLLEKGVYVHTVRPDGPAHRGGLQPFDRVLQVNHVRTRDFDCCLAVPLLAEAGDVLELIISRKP
# Chain of LIMK2, P53671 (P53671 143-248): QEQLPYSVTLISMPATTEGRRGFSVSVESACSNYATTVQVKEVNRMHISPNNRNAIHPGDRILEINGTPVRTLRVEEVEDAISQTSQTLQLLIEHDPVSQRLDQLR
# Chain of FRMPD2_2, Q68DX3 (Q68DX3 944-1038): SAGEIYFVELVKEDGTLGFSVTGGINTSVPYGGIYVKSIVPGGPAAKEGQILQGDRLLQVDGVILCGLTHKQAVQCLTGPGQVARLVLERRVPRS
# Chain of GRASP, Q7Z6J2 (Q7Z6J2 96-193): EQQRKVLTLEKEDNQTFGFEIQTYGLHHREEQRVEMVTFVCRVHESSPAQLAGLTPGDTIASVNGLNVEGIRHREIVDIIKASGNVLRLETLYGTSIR
# Chain of DLG2_2, Q15700 (Q15700 189-283): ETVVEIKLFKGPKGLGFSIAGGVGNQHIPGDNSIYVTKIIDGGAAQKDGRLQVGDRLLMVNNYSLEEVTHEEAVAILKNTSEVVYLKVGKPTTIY
# Chain of DLG4_1, P78352 (P78352 62-152): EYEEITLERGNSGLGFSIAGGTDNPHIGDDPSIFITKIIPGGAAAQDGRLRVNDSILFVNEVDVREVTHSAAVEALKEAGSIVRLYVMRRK
# Chain of NHERF2_2, Q15599 (Q15599 142-238): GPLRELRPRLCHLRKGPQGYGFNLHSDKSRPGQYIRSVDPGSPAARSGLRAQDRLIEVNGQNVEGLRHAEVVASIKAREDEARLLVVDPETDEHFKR
# Chain of HTRA1, Q92743 (Q92743 360-477): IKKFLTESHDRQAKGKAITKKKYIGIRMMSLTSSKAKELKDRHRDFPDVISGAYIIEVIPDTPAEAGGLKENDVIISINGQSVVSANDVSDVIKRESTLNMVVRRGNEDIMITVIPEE
# Chain of GRIP2_4, Q9C0E4 (Q9C0E4 446-548): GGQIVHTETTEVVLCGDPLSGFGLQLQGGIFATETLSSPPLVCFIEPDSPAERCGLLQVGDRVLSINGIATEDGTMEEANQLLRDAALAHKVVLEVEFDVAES
# Chain of Inadl_2, Q8NI35 (Q8NI35 238-335): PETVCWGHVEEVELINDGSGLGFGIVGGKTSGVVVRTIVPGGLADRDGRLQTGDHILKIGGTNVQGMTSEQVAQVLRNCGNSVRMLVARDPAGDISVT
# Chain of LDB3, O75112 (O75112 1-94): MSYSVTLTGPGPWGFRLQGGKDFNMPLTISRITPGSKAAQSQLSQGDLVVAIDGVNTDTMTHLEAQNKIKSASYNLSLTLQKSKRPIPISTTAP
# Chain of MAGI2_2, Q86UL8 (Q86UL8 410-522): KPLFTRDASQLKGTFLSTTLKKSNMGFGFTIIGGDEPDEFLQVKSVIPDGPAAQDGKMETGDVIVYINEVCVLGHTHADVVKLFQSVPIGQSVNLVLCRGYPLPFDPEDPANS
# Chain of NHERF4_4, Q86UT5 (Q86UT5 464-550): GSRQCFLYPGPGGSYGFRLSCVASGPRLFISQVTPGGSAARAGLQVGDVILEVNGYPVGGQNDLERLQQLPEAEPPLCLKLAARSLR
Binder,"pKd (APBA3_1, O96018)","pKd (CARD11, Q9BXL7)","pKd (DFNB31_1, Q9P202)","pKd (DLG2_2, Q15700)","pKd (DLG4_1, P78352)","pKd (FRMPD2_2, Q68DX3)","pKd (GRASP, Q7Z6J2)","pKd (GRID2IP_1, A4D2P6)","pKd (GRIP1_3, Q9Y3R0)","pKd (GRIP2_4, Q9C0E4)","pKd (GRIP2_7, Q9C0E4)","pKd (HTRA1, Q92743)","pKd (HTRA4, P83105)","pKd (Inadl_2, Q8NI35)","pKd (Inadl_6, Q8NI35)","pKd (LDB3, O75112)","pKd (LIMK2, P53671)","pKd (LIN7C, Q9NUP9)","pKd (MAGI2_2, Q86UL8)","pKd (MAGI2_5, Q86UL8)",also measured
"GIKKITSTAL [RPS6KA3, P51812]",below the threshold,below the threshold,4.39,3.88,3.76,3.5,4.68,below the threshold,below the threshold,below the threshold,below the threshold,3.58,below the threshold,below the threshold,3.57,below the threshold,below the threshold,below the threshold,4.16,3.95,"pKd (MAGI3_2, Q5TCQ9): 4.08; pKd (NHERF2_2, Q15599): 4.76; pKd (NHERF3_3, Q5T2W1): below the threshold; pKd (NHERF4_4, Q86UT5): 3.99; pKd (PARD3_3, Q8TEW0): 3.51; pKd (RAPGEF6, Q8TEU7): below the threshold; pKd (SHANK1, Q9Y566): 5.16; pKd (SNX27, Q96L92): 4.93"
"NVYGIESVKI [GRIA2, P42262]",below the threshold,below the threshold,below the threshold,3.5,below the threshold,below the threshold,below the threshold,below the threshold,below the threshold,below the threshold,below the threshold,4.25,3.74,below the threshold,below the threshold,below the threshold,below the threshold,below the threshold,below the threshold,below the threshold,"pKd (MAGI3_2, Q5TCQ9): 3.62; pKd (NHERF2_2, Q15599): 3.71; pKd (NHERF3_3, Q5T2W1): below the threshold; pKd (NHERF4_4, Q86UT5): below the threshold; pKd (PARD3_3, Q8TEW0): 3.78; pKd (RAPGEF6, Q8TEU7): below the threshold; pKd (SHANK1, Q9Y566): 3.9; pKd (SNX27, Q96L92): below the threshold"
"SVTSERETNI [SLC16A7, O60669]",below the threshold,below the threshold,4.68,3.95,below the threshold,below the threshold,below the threshold,below the threshold,below the threshold,below the threshold,below the threshold,below the threshold,below the threshold,below the threshold,below the threshold,below the threshold,below the threshold,4.11,below the threshold,below the threshold,"pKd (MAGI3_2, Q5TCQ9): below the threshold; pKd (NHERF2_2, Q15599): below the threshold; pKd (NHERF3_3, Q5T2W1): below the threshold; pKd (NHERF4_4, Q86UT5): below the threshold; pKd (PARD3_3, Q8TEW0): below the threshold; pKd (RAPGEF6, Q8TEU7): below the threshold; pKd (SHANK1, Q9Y566): below the threshold; pKd (SNX27, Q96L92): 4.74"
"PSHPRLQTHV [KIRREL2, Q6UWL6]",below the threshold,below the threshold,below the threshold,4.28,4.06,below the threshold,4.18,below the threshold,below the threshold,below the threshold,below the threshold,below the threshold,3.6,below the threshold,below the threshold,below the threshold,below the threshold,4,4.82,3.58,"pKd (MAGI3_2, Q5TCQ9): 5.1; pKd (NHERF2_2, Q15599): below the threshold; pKd (NHERF3_3, Q5T2W1): below the threshold; pKd (NHERF4_4, Q86UT5): below the threshold; pKd (PARD3_3, Q8TEW0): below the threshold; pKd (RAPGEF6, Q8TEU7): below the threshold; pKd (SHANK1, Q9Y566): 3.84; pKd (SNX27, Q96L92): below the threshold"
"NNNVVKVDSV [MTNR1A, P48039]",below the threshold,below the threshold,below the threshold,below the threshold,below the threshold,below the threshold,below the threshold,below the threshold,below the threshold,below the threshold,below the threshold,below the threshold,3.82,below the threshold,below the threshold,below the threshold,below the threshold,below the threshold,below the threshold,below the threshold,"pKd (MAGI3_2, Q5TCQ9): below the threshold; pKd (NHERF2_2, Q15599): below the threshold; pKd (NHERF3_3, Q5T2W1): below the threshold; pKd (NHERF4_4, Q86UT5): below the threshold; pKd (PARD3_3, Q8TEW0): below the threshold; pKd (RAPGEF6, Q8TEU7): below the threshold; pKd (SHANK1, Q9Y566): below the threshold; pKd (SNX27, Q96L92): below the threshold"
